Laboratory results published in patent CN116003603A.

How the values were obtained:
[1] = molecular target: CLDN18.2 (antigen of the ka/kd/KD measurement, species and form not stated); assay: affinity measurement, method not described (Table 2-2)
[2] = molecular target: CLDN18.2 (antigen of the ka/kd/KD measurement, species and form not stated); assay: affinity measurement, method not described

Substance: IMAB362 (antibody)
- Kd [1]: 4.17 nM
- Kd [2]: 4.17 nM
